The values below come from doi:10.1101/2020.12.04.411645.

In general, pKd refers to the negative decadic logarithm of the Kd, by convention in mol/L. A high value points to a small Kd.

pKd: −log10 of the molar value.

For the assay, the target named is MBP-tagged full-length CYRI-A (mouse) (UniProt Q8BHZ0). As to the kind of experiment: SPR.
Chain of MBP-tagged full-length CYRI-A (mouse) (Q8BHZ0 whole entry): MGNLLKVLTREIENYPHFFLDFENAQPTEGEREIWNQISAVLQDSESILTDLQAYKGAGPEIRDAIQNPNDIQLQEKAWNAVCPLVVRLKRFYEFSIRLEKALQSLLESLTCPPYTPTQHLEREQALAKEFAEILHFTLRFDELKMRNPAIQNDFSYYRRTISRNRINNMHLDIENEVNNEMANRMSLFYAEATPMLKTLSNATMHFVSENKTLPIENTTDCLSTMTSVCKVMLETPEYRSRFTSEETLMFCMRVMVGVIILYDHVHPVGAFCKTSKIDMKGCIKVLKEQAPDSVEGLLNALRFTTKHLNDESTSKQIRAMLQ

In turn, “untagged full-length RAC1 Q61L (from UniProt P63000 1-192) (enzyme; other documents disagree on this pair)” gave a pKd of 5.61.
